In patent publication US20040053349A1, “Direct selection of protein complexes relevant to physiological or diagnostic context of a biological specimen” (priority 2000, published 2004):

System: trypsin
Test: Trypsin treatment of enzyme-spiked dialyzed human serum with or without ligand solutions, then residual enzyme activity assay
Assay type: biochemical
Conditions: for Relative residual activity [percent of untreated], LSA: LSA (ATP, XMP, CMP, NADP, NADPH) added before treatment with trypsin; for Relative residual activity [percent of untreated], LSA + LSB: LSA and LSB both added before treatment with trypsin; for Relative residual activity [percent of untreated], LSB: LSB (glucose, L-aspartic acid, D,L-asparagine, creatine, D,L-glyceraldehyde-3-P) added before treatment with trypsin
Experimental: 2. Ligand solutions (LS) are composed as follows:
One) ATP, XMP, CMP, NADP and NADPH are included in ligand solution LSA; and
Two) Glucose, L-aspartic acid, D,L-asparagine, creatine, D,L-glyceraidehyde-3-P are included in ligand solution LSB.
2. The serum is treated with trypsin in the absence and presence of LSA or LSB, or both. At the end of the treatment samples are assayed for enzyme activity. For details see Table 1.

| Molecule | Relative residual activity [percent of untreated], LSA | Relative residual activity [percent of untreated], LSA + LSB | Relative residual activity [percent of untreated], LSB |
| --- | --- | --- | --- |
| Asparaginase | 9% of untreated | 90% of untreated | 89% of untreated |
| Ribonuclease A: enzyme preparation spiked into dialyzed serum sample (protein, UniProt P61823 27-150, looked up) Ribonuclease pancreatic: KETAAAKFERQHMDSSTSAASSSNYCNQMMKSRNLTKDRCKPVNTFVHESLADVQAVCSQKNVACKNGQTNCYQSYSTMSITDCRETGSSKYPNCAYKTTQANKHIIVACEGNPYVPVHFDASV | 93% of untreated | 93% of untreated | 11% of untreated |
